The values that follow are results of earlier work, collected in patent publication US5814460A, “Method for generating and screening useful peptides” (Diatide, Inc., priority 1995, dated 1998).

Like-named read-outs stand apart in the source and are kept apart here.

The target in one series is T1, streptavidin (Streptomyces avidinii, UniProt P22629).
T1 construct: purchased Sigma Chemical Company
The settings on record: read-out: Kd of streptavidin complex.

Series [1] deals with fibrinogen receptor (GpIIb IIIa) (Homo sapiens, UniProt P05106+P08514).
In the next series the target is Angiotensin II Receptor. To be noted: Table 6.
In a further series the target is fibrin polymerization (Homo sapiens, UniProt P02679). To be noted: literature statement.
Chain of fibrin polymerization (P02671 20-629 partner limits assumed): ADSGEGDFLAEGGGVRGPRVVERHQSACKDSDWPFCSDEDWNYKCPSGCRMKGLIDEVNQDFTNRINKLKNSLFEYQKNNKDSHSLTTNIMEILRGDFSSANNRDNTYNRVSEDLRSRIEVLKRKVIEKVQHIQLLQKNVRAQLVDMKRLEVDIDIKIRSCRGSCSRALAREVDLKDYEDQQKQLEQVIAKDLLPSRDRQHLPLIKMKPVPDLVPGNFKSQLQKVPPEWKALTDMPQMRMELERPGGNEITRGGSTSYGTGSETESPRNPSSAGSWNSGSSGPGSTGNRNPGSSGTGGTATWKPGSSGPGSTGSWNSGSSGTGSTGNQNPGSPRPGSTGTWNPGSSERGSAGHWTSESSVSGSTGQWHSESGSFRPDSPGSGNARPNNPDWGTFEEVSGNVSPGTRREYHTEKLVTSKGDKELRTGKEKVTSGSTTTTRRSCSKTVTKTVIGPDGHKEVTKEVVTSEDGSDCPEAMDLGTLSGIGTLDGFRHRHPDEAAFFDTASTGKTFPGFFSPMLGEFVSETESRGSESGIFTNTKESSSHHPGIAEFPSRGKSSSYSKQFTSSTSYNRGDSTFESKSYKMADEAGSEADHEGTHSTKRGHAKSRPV
Chain of fibrin polymerization (P02675 31-491 partner): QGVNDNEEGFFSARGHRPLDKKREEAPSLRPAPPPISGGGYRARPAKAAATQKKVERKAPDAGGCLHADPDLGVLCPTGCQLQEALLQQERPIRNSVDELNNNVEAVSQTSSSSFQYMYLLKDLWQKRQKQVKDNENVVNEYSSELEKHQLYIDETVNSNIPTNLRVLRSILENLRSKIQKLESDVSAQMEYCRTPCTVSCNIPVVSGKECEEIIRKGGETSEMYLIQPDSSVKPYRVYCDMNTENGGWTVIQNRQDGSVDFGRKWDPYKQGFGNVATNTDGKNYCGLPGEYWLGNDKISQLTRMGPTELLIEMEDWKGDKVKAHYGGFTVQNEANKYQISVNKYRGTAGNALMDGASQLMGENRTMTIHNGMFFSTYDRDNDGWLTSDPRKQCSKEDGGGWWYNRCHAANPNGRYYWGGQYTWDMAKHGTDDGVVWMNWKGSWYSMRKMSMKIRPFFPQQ
Chain of fibrin polymerization (P02679 27-433 limits assumed): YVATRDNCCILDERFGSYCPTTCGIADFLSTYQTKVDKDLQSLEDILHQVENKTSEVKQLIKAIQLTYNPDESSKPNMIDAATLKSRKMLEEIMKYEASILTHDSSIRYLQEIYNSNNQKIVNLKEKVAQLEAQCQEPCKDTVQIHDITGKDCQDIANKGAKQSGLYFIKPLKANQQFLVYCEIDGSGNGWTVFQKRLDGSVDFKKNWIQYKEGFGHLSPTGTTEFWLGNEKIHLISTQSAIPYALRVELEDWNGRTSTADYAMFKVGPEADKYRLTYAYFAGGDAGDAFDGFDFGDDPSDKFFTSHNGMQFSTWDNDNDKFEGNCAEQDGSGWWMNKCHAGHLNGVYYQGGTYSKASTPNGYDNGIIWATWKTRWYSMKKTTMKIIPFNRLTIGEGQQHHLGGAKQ
Another series deals with human fibrinogen (Homo sapiens, UniProt P02679). The settings on record: read-out: affinities for human fibrinogen.
Chain of human fibrinogen (P02671 20-629 partner limits assumed): as the sequence (P02671 20-629 partner limits assumed) above
Chain of human fibrinogen (P02675 31-491 partner): as the sequence (P02675 31-491 partner) above
Chain of human fibrinogen (P02679 27-433 limits assumed): as the sequence (P02679 27-433 limits assumed) above
A further series addresses Porcine PLA2 (Sus scrofa, UniProt P00592). The settings on record: Table 6.
Another series addresses Pepsin (hum.) (Homo sapiens, UniProt P0DJD7). To be noted: Table 6.
Series [2] concerns the target Urokinase Receptor (hum.) (Homo sapiens, UniProt Q03405). To be noted: Table 6.
In the next series the target is CD4 (Homo sapiens, UniProt P01730). To be noted: Table 6.
The next series addresses T2, Gastricsin (hum.) (Homo sapiens, UniProt P20142).
T2 sequence (P20142 60-388): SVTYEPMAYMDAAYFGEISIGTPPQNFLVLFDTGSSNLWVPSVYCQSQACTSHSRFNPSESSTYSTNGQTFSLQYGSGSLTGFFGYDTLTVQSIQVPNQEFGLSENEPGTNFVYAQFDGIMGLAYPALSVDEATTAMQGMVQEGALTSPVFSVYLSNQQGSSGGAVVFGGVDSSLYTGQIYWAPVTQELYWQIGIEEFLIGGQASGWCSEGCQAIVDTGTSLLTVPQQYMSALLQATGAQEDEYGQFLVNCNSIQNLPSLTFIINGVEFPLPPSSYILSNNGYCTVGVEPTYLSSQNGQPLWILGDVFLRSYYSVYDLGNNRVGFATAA
The settings on record: Table 6.

The next series has as its target Calmodulin (Homo sapiens, UniProt P0DP23). To be noted: Table 6.
Series [3] concerns the target Fibronectin (rat) (human). The settings on record: Table 6.
[4] abbreviates: Table 6, target GpIIb IIa, read-out: Kd.

Chain of Urokinase Receptor (hum.) (Q03405 23-335): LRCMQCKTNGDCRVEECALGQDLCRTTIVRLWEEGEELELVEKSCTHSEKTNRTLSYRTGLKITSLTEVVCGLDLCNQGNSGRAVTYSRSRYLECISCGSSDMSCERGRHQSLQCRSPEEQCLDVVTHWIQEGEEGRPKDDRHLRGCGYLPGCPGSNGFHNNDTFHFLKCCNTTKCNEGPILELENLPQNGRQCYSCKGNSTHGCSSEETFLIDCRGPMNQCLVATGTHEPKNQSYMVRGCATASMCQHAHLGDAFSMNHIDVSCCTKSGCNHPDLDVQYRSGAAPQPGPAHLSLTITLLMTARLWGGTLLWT
Chain of Porcine PLA2 (P00592 23-146): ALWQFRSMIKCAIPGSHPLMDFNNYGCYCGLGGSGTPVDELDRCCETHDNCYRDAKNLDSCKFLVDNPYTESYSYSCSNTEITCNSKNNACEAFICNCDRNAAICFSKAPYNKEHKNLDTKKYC
T1 sequence (P22629 25-183): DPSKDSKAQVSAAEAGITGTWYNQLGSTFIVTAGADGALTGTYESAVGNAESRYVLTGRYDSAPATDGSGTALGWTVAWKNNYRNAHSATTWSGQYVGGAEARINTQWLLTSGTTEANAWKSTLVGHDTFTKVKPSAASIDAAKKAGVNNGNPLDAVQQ
Chain of Fibronectin (rat) (human) (P04937 1540-1633 limits assumed): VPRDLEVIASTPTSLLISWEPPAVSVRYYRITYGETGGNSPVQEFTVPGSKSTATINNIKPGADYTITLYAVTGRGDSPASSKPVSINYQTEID
Chain of Pepsin (hum.) (P0DJD7 63-388): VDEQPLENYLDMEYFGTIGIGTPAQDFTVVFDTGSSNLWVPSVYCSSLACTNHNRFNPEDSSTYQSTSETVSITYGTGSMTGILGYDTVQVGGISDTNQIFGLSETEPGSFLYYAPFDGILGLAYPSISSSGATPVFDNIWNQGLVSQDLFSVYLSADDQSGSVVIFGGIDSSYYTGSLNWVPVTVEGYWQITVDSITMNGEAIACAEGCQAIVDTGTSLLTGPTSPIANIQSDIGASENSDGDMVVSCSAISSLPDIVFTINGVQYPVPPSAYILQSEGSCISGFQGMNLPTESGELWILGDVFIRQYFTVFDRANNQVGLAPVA

As to `N=C1N[C@H]2[C@H](CS[C@H]2CCCCC(=O)O)N1` [imminobiotin], on streptavidin, the Kd was about 10 nM.
For the compound Arg-Gly-Asp-Trp (RGDW), the Kd was 1000 nM in series [1] (setting [4]) and 5000 nM in series [1] (example of a lead peptide, read-out: affinity (Kd) for fibrinogen receptor).
Turning to EGVYVHPV, the Kd at Angiotensin II Receptor was 100 nM.
Consider GPRP, for which the “inhibition of fibrin polymerization” value on fibrin polymerization is on record as “inhibit fibrin polymerization”.
With “GPRV: synthetic peptide beginning with GPR that binds fibrinogen”, in the series with fibrin polymerization, the “inhibition of fibrin polymerization” value was “inhibit fibrin polymerization”. Moreover, the Kd with human fibrinogen was 100000 nM.
In the case of “GRGDSP: lead peptide (Fb) for GpIIb IIIa”, in [1] (setting [4]), the Kd is 1000 nM.
Gly-Pro-Arg [GPR]: the “inhibition of fibrin polymerization” value on fibrin polymerization is “inhibit fibrin polymerization”. Moreover, the Kd at human fibrinogen was 50000 nM.
On to MLFILIKRSRHF, for which the Kd with Porcine PLA2 is 10000 nM.
In the case of “RGDY: RGD containing peptide binding GpIIb IIIa”, the Kd in series [1] (setting [4]) was 1000 nM.
RIFLKRMPSIR: the Kd with Pepsin (hum.) was 1000 nM.
For “TCVXNKYFSNIHW: lead peptide (urokinase) for urokinase receptor”, the Kd in series [2] was 1000 nM.
For TNYT: lead peptide for CD4, the Kd with CD4 is 1000 nM.
Take TTFKRIFLKRMPS: the Kd with Gastricsin (hum.) is 1000 nM.
As to VAITVLVK, the Kd with Calmodulin was 1000 nM.
On to “WTVPTA: lead peptide, antisense of GAVSTA RGD sequence, for fibronectin”, for which the Kd in [3] was 1000 nM.
